According to patent publication US7799901B2, “Modulators of the function of FAS receptors and other proteins” (Yeda Research and Development Co. Ltd., priority 1995, dated 2010):

T1: MORT1 (Homo sapiens, UniProt Q13158)
T1 sequence (Q13158 1-208): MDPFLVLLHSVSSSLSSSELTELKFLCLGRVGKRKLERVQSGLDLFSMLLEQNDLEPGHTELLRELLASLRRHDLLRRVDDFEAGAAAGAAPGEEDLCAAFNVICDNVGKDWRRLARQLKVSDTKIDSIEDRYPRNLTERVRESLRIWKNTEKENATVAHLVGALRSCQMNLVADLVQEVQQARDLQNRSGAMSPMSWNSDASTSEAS

T2: MORT-1 (Homo sapiens, UniProt Q13158, G32V)
T2 sequence (Q13158 with tags, fused parts or gaps G32V): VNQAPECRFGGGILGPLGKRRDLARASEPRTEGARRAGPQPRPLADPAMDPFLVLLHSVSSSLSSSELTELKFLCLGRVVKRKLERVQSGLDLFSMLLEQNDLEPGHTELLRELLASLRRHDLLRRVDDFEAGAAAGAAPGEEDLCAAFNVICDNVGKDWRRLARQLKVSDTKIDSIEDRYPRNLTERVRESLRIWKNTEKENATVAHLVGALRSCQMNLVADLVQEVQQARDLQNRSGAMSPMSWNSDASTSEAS


Experiments:
[1] = molecular target: T3, MACH B (Homo sapiens, UniProt Q14790); assay: Two-hybrid β-galactosidase expression filter assay in SFY526 yeast, DNA-binding domain hybrid MACH B; settings: DNA-binding domain hybrid MACH B (ORF-B region)
T3 construct: a construct encoding only the ORF-B (MACH B) region; expressed in transfected cells; host or cells: SFY526 yeast
Text: (§1) To isolate proteins interacting with the intracellular domain of the FAS-R, the yeast two-hybrid system was used (Fields and Song, 1989). […] In this system, the genes for the candidate interacting proteins are cloned into separate expression vectors. In one expression vector, the sequence of the one candidate protein is cloned in phase with the sequence of the GAL4 DNA-binding domain to generate a hybrid protein with the GAL4 DNA-binding-domain, and in the other vector, the sequence of the second candidate protein is cloned in phase with the sequence of the GAL4 activation domain to generate a hybrid protein with the GAL4-activation domain. The two hybrid vectors are then co-transformed into a yeast host strain having a lacZ or HIS3 reporter gene under the control of upstream GAL4 binding sites. […]
The yeast two-hybrid test was further applied to evaluate the specificity of binding of MACH to MORT-1, in particular, to define the region in MORT-1 to which MACH binds, as well as to determine which of the MACH ORFs interacts with MORT-1, the procedures being as set forth herein above in Examples 1 and 2. Briefly, various MORT-1 and MACH constructs were prepared for testing the interaction of the proteins encoded by the Gal4 DNA-binding domain and activation domain constructs within transfected SFY526 yeast cells as assessed by the β-galactosidase expression filter assay. […]

[2] = molecular target: T1, MORT1; assay: Co-immunoprecipitation with MORT-1 from 293-EBNA cell lysates; type: binding; parameters: expressed in transfected cells; host or cells: 293-EBNA; HeLa (detail in the same paragraph); settings: lysates of human embryonic kidney 293-EBNA cells
Experimental: Testing further if MACHα1 can bind to MORT1 also within mammalian cells, MACHα1 or MACHβ1, fused with the FLAG octapeptide was expressed, together with HA epitope-tagged MORT1 molecules. ^35[S] metabolically labeled MACHα1 and MACHβ1 fused at their N-termini to the FLAG octapeptide (FLAG-MACHα1 and β1), and MORT1 fused at its N terminus to the HA epitope (Field et al, 1988) were expressed in HeLa cells. Immunoprecipitation of the proteins from lysates of the cells was performed using mouse monoclonal antibodies against the FLAG octapeptide (M2; Eastman Kodak), HA epitope (12CA5, Field et al, 1988) or the p75 TNF receptor (#9, Bigda et al, 1994) as a control. The proteins were analyzed by SDS-polyacrylamide gel electrophoresis (12% acrylamide), followed by autoradiography. […] The effectivity of interaction of MACHα1 with MORT1 appeared to be lower than that of MACHβ1.

[3] = molecular target: T2, MORT-1; assay: Two-hybrid β-galactosidase expression filter assay in SFY526 yeast, DNA-binding domain hybrid MORT-1; parameters: the full-length MORT-1 cDNA was used (MORT 1); expressed in transfected cells; host or cells: SFY526 yeast; settings: substance as activation domain hybrid
Text: as §1, with “sites. Only those transformed host cells (cotransformants) in which the two hybrid proteins are expressed and are capable of interacting with each other, will be capable of expressing the reporter gene.” for “sites.”
The yeast two-hybrid test was further applied to evaluate the specificity of binding of MACH to MORT-1, in particular, to define the region in MORT-1 to which MACH binds, as well as to determine which of the MACH ORFs interacts with MORT-1, the procedures being as set forth herein above in Examples 1 and 2. Briefly, various MORT-1 and MACH constructs were prepared for testing the interaction of the proteins encoded by the Gal4 DNA-binding domain and activation domain constructs within transfected SFY526 yeast cells as assessed by the β-galactosidase expression filter assay. […] In the assay, the development of color was determined, where the greater the color development, the greater the interaction between the constructs encoded by the DNA-binding domain and activation domain; Color development was depicted by symbols, where “+++” and “+” indicate the development of a strong color within 30 and 90 min. of the assay, respectively, and “−−−” indicates the lack of development of color within 24 hrs. of the assay. […]

Row | Molecule | development of color (interaction with DNA-binding domain hybrid) [1] | coimmunoprecipitation with MORT-1 [2] | development of color (interaction with DNA-binding domain hybrid) [3]
1 | MACHβ1: MACH isoform, cDNA SEQ ID NO: 4, amino acid SEQ ID NO: 5; lacks the CED3/ICE homology region (protein) MDFSRNLYDIGEQLDSEDLASLKFLSLDYIPQRKQEPIKDALMLFQRLQEKRMLEESNLSFLKELLFRINRLDLLITYLNTRKEEMERELQTPGRAQISAYRVMLYQISEEVSRSELRSFKFLLQEEISKCKLDDDMNLLDIFIEMEKRVILGEGKLDILKRVCAQINKSLLKIINDYEEFSKERSSSLEGSPDEFSNDFGQSLPNEKQTSGILSDHQQSQFCKSTGESAQTSQH | + (“+++” and “+” indicate the development of a strong color within 30 and 90 min. of the assay, respectively) | coimmunoprecipitated | +++ (“+++” and “+” indicate the development of a strong color within 30 and 90 min. of the assay, respectively)
2 | MACHα1 (C360S): MACHα1 mutant in which the catalytic cysteine Cys360 is replaced by Ser (protein) MDFSRNLYDIGEQLDSEDLASLKFLSLDYIPQRKQEPIKDALMLFQRLQEKRMLEESNLSFLKELLFRINRLDLLITYLNTRKEEMERELQTPGRAQISAYRVMLYQISEEVSRSELRSFKFLLQEEISKCKLDDDMNLLDIFIEMEKRVILGEGKLDILKRVCAQINKSLLKIINDYEEFSKERSSSLEGSPDEFSNGEELCGVMTISDSPREQDSESQTLDKVYQMKSKPRGYCLIINNHNFAKAREKVPKLHSIRDRNGTHLDAGALTTTFEELHFEIKPHDDCTVEQIYEILKIYQLMDHSNMDCFICCILSHGDKGIIYGTDGQEAPIYELTSQFTGLKCPSLAGKPKVFFIQASQGDNYQKGIPVETDSEEQPYLEMDLSSPQTRYIPDEADFLLGMATVNNCVSYRNPAEGTWYIQSLCQSLRERCPRGDDILTILTEVNYEVSNKDDKKNMGKQMPQPTFTLRKKLVFPSD |  | coimmunoprecipitated | 
3 | MORT-1: Mediator of Receptor-induced Toxicity; protein binding the intracellular domain of FAS-R, SEQ ID NO:2 (protein) VNQAPECRFGGGILGPLGKRRDLARASEPRTEGARRAGPQPRPLADPAMDPFLVLLHSVSSSLSSSELTELKFLCLGRVVKRKLERVQSGLDLFSMLLEQNDLEPGHTELLRELLASLRRHDLLRRVDDFEAGAAAGAAPGEEDLCAAFNVICDNVGKDWRRLARQLKVSDTKIDSIEDRYPRNLTERVRESLRIWKNTEKENATVAHLVGALRSCQMNLVADLVQEVQQARDLQNRSGAMSPMSWNSDASTSEAS | + (“+++” and “+” indicate the development of a strong color within 30 and 90 min. of the assay, respectively) |  | +++ (“+++” and “+” indicate the development of a strong color within 30 and 90 min. of the assay, respectively)
